Experiments:
[1] = target: T1, human neonatal Fc-receptor (FcRn) (human, UniProt P55899 24-297; P61769 21-119); assay: FcRn affinity chromatography, anti-IGF-1R KiH antibody
T1 construct: also called human FcRn; huFcRn

[2] = target: T1, human neonatal Fc-receptor (FcRn); assay: SPR (BIAcore), FcRn immobilized on a CM5 chip, pH 6.0, 200 nM sample
Procedure: The binding properties of wild-type antibody and the mutants to FcRn were analyzed by surface plasmon resonance (SPR) technology using a BIAcore T100 instrument (BIAcore AB, Uppsala, Sweden). […] In the current assay, the FcRn receptor was immobilized onto a BIAcore CM5-biosensor chip (GE Healthcare Bioscience, Uppsala, Sweden) via amine coupling to a level of 400 Response units (RU). The assay was carried out at room temperature with PBS, 0.05% Tween20 pH 6.0 (GE Healthcare Bioscience) as running and dilution buffer. 200 nM of samples were injected at a flow rate of 50 μL/min at room temperature. Association time was 180 sec., dissociation phase took 360 sec. Regeneration of the chip surface was reached by a short injection of HBS-P, pH 8.0. Evaluation of SPR-data was performed by comparison of the biological response signal height at 180 sec. after injection and at 300 sec. after injection. The corresponding parameters are the RU max level (180 sec. after injection) and late stability (300 sec. after end of injection).

T1 sequence (P55899 24-297 limits assumed, chain 1 of 2): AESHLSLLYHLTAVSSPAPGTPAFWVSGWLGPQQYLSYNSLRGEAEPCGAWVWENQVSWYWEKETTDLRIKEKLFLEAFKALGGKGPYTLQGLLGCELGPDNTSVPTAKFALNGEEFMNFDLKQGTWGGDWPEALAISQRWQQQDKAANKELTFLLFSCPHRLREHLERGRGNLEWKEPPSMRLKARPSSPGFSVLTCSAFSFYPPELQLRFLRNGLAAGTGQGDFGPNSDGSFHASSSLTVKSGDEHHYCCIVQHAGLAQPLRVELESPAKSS
T1 sequence (P61769 21-119 limits assumed, chain 2 of 2): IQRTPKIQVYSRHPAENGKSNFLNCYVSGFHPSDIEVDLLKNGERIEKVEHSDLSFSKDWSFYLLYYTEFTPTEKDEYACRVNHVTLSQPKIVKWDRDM

Binder | retention time on FcRn affinity column [1] [min] | binding result [2]
IGF-1R 0034 (antibody, human IgG1, kappa, tied by description; also called <IgF-1R> IgG1 knob wt, hole I253A, H310A, H435A; anti-IGF-1R antibody, one chain with I253A/H310A/H435A) light: not shown heavy 1: not shown heavy 2: QVELVESGGGVVQPGRSQRLSCAASGFTFSSYGMHWVRQAPGKGLEWVAIIWFDGSSTYYADSVRGRFTISRDNSKNTLYLQMNSLRAEDTAVYFCARELGRRYFDLWGRGTLVSVSSASTKGPSVFPLAPSSKSTSGGTAALGCLVKDYFPEPVTVSWNSGALTSGVHTFPAVLQSSGLYSLSSVVTVPSSSLGTQTYICNVNHKPSNTKVDKKVEPKSCDKTHTCPPCPAPELLGGPSVFLFPPKPKDTLMASRTPEVTCVVVDVSHEDPEVKFNWYVDGVEVHNAKTKPREEQYNSTYRVVSVLTVLAQDWLNGKEYKCKVSNKALPAPIEKTISKAKGQPREPQVCTLPPSRDELTKNQVSLSCAVKGFYPSDIAVEWESNGQPENNYKTTPPVLDSDGSFFLVSKLTVDKSRWQQGNVFSCSVMHEALHNAYTQKSLSLSPGK | 42 | –
IGF-1R 0037 (antibody, human IgG1, kappa, tied by description; also called <IGF-1R> IgG1 knob wt, hole L251D, L314D, L432D; anti-IGF-1R antibody, one chain with L251D/L314D/L432D) light: not shown heavy 1: not shown heavy 2: QVELVESGGGVVQPGRSQRLSCAASGFTFSSYGMHWVRQAPGKGLEWVAIIWFDGSSTYYADSVRGRFTISRDNSKNTLYLQMNSLRAEDTAVYFCARELGRRYFDLWGRGTLVSVSSASTKGPSVFPLAPSSKSTSGGTAALGCLVKDYFPEPVTVSWNSGALTSGVHTFPAVLQSSGLYSLSSVVTVPSSSLGTQTYICNVNHKPSNTKVDKKVEPKSCDKTHTCPPCPAPELLGGPSVFLFPPKPKDTDMISRTPEVTCVVVDVSHEDPEVKFNWYVDGVEVHNAKTKPREEQYNSTYRVVSVLTVLHQDWDNGKEYKCKVSNKALPAPIEKTISKAKGQPREPQVCTLPPSRDELTKNQVSLSCAVKGFYPSDIAVEWESNGQPENNYKTTPPVLDSDGSFFLVSKLTVDKSRWQQGNVFSCSVMHEADHNHYTQKSLSLSPGK | 40.9 | –
IGF-1R 0035 (antibody, human IgG1, kappa, also called <IGF-1R> IgG1 knob wt, hole H310A, H433A, Y436A; IGF-1R 0035 (with HHY-AAA mutation in one Fc-region polypeptide)) light: not shown heavy 1: not shown heavy 2: QVELVESGGGVVQPGRSQRLSCAASGFTFSSYGMHWVRQAPGKGLEWVAIIWFDGSSTYYADSVRGRFTISRDNSKNTLYLQMNSLRAEDTAVYFCARELGRRYFDLWGRGTLVSVSSASTKGPSVFPLAPSSKSTSGGTAALGCLVKDYFPEPVTVSWNSGALTSGVHTFPAVLQSSGLYSLSSVVTVPSSSLGTQTYICNVNHKPSNTKVDKKVEPKSCDKTHTCPPCPAPELLGGPSVFLFPPKPKDTLMISRTPEVTCVVVDVSHEDPEVKFNWYVDGVEVHNAKTKPREEQYNSTYRVVSVLTVLAQDWLNGKEYKCKVSNKALPAPIEKTISKAKGQPREPQVCTLPPSRDELTKNQVSLSCAVKGFYPSDIAVEWESNGQPENNYKTTPPVLDSDGSFFLVSKLTVDKSRWQQGNVFSCSVMHEALANHATQKSLSLSPGK | 42.4 | –
IGF-1R 0036 (antibody, human IgG1, kappa, tied by description; also called <IGF-1R> IgG1 knob wt, hole M252Y, S254T, T256E; anti-IGF-1R antibody, one chain with M252Y/S254T/T256E) light: not shown heavy 1: not shown heavy 2: QVELVESGGGVVQPGRSQRLSCAASGFTFSSYGMHWVRQAPGKGLEWVAIIWFDGSSTYYADSVRGRFTISRDNSKNTLYLQMNSLRAEDTAVYFCARELGRRYFDLWGRGTLVSVSSASTKGPSVFPLAPSSKSTSGGTAALGCLVKDYFPEPVTVSWNSGALTSGVHTFPAVLQSSGLYSLSSVVTVPSSSLGTQTYICNVNHKPSNTKVDKKVEPKSCDKTHTCPPCPAPELLGGPSVFLFPPKPKDTLYITREPEVTCVVVDVSHEDPEVKFNWYVDGVEVHNAKTKPREEQYNSTYRVVSVLTVLHQDWLNGKEYKCKVSNKALPAPIEKTISKAKGQPREPQVCTLPPSRDELTKNQVSLSCAVKGFYPSDIAVEWESNGQPENNYKTTPPVLDSDGSFFLVSKLTVDKSRWQQGNVFSCSVMHEALHNHYTQKSLSLSPGK | 57.6 | –
YTE-mutant of anti-IGF-1R antibody (antibody, human IgG1, kappa, IgG1; also called <IGF-1R> IgG1 with M252Y, S254T, T256E; anti-IGF-1R IgG1 with YTE mutation) light: not shown heavy: QVELVESGGGVVQPGRSQRLSCAASGFTFSSYGMHWVRQAPGKGLEWVAIIWFDGSSTYYADSVRGRFTISRDNSKNTLYLQMNSLRAEDTAVYFCARELGRRYFDLWGRGTLVSVSSASTKGPSVFPLAPSSKSTSGGTAALGCLVKDYFPEPVTVSWNSGALTSGVHTFPAVLQSSGLYSLSSVVTVPSSSLGTQTYICNVNHKPSNTKVDKKVEPKSCDKTHTCPPCPAPELLGGPSVFLFPPKPKDTLYITREPEVTCVVVDVSHEDPEVKFNWYVDGVEVHNAKTKPREEQYNSTYRVVSVLTVLHQDWLNGKEYKCKVSNKALPAPIEKTISKAKGQPREPQVYTLPPSRDELTKNQVSLTCLVKGFYPSDIAVEWESNGQPENNYKTTPPVLDSDGSFFLYSKLTVDKSRWQQGNVFSCSVMHEALHNHYTQKSLSLSPG | – | binds

Reference: US20190016828A1 (Hoffmann-La Roche, published 2019)
